Measured values taken from the domain aggregation screens of Martell et al. (2025).

Assay: soluble fraction after stress (log2 fold change); higher = more stays soluble; pooled small domains, quantitative proteomics
Details: stress: 50 degC
Method in brief: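 Pooled custom libraries of small protein domains were measured in a high-throughput format, with quantitative proteomics as the read-out. Each library was stressed at 50°C. Aggregation propensity is given as the base-two logarithm of the fold change in how much of each protein stays soluble after the stress. Higher values mean a larger share of the protein remains in solution.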

| Sequence | soluble fraction (log2) |
| --- | --- |
| HMADYYETLGVERTASEEDIKRAYRKMSRKYHPDIAGPEFEEKFKEVNTAYEVLSDPDKRRMYDAGVDPND | 0.0489 |
| HMRKEPSYASDIITRLKEADLIVVEGTLYPLLTRLKKDGLLSYEWRESTQGPPRKYYALTLDGET | -0.455 |
| HMAAEELTVDKILTAQSFGVTAEAILAKVNDPANTVATLTQADVDRLRAAGVPEGVVTALQARAPQ | 0.0975 |
| HMREYEKAVDYVRRMISSGSLNVGDRLPTERELSLELDISRNSTREAMRMLENMGIIVSRHGSGNYISGN | -0.594 |
| HMPLSDAEKAAAIATQAKERALKLSPEMISYLLRHASRDMRTLSMLVVALDQYTLEQKRPVTLPLLRELLS | -0.098 |
| HMIDTTKILPGQEFKNMQELSVALTGQKMPAGKGYVLQQEKFKLYFSWKKITGTHKLIIDEIYEEPKT | -3.44 |
| HMLSKEERRSQLLDLGVRLLSTRSLDELSIDLLAEEAGISRGLLYHYFGNKHDFHEAVVRRAADDLI | -1.75 |
| HMDLDLNIDNYNFDDLLNLFGLKMKFSEDDLKKAKRSVLMTHPDKSGLDKQYFMFFTKAYKMLSQIYYFR | 0.42 |
| HMFPNSFSEREKEVVDLLLQAKSNKQIAFSLGITNRTVEYHLGNIFAKLGVSSRSEAILTITNYKNQ | -2.01 |
| HMFKLPRTIGTFEDSDVVIGAGKFGPYIMHNKKFVSLPKSEDPLTIGLERAIELISAKREQEKQRH | 0.284 |
| HMKKPRKTSRKSIENAAIFYLQRFSSSIENLRRVLMRRVYRSAQYHNTKPEEDAKIVDSIIYRLIETGVL | -0.0617 |
| HMGMGDALRILFNQAMLIEREQYLQAGAYERNENPVNYANGFKAKTLNTRVGALEVAVPQTRDSAFYPSFL | -0.114 |
| HMENKLIELTLSLDKSERLDKILTQELSHTRSVIQQWLKSGFVSVNGEIVKANYKAKDGDHVTIQIE | -0.198 |
| HMSPPVIQQGQDVRLIYKGTGFAVSNEGKALNTAADGQVARARTGGGQTVSGIARPGGIIEIT | 0.308 |
| HMKTITLDEAQEIALAEVDGKVTRAVEETDDGRSYYEFDIITNDQKHELEVDASSGKITKNEIDEDYVPS | 0.171 |
| HMGEVYPSDIVEKMKQANLHILEGTLYPLLTRLKNAGLLNYRWVESVTGPPRKYFVMTEEGKAAF | 0.0419 |
| HMGVSEIGSPAWMESKLVTLASYEGSLDGLRTLWGGVAQHRARIPVESWDRLFAAKEEGKARLVKLGRT | -1.19 |
| HMSQDTLIENGKVFLIHKVVAGQTLYGLSKAYNITIEDIIKYNPQAENGIKIGEDIKIFLKEE | -0.432 |
| HMREVEAPRDLLAALGERPGALDAWKALSFTHQREYVEAIEDARKPETRERRIANAVKMVAERS | 0.285 |
| HMGESYQIKDGELLVDIAQRVKPAGMTLRQTINALVAANPRAFRNGNPDLMYRGATLTIPDGDTLRRLAH | 0.131 |
| HMTVKKLTINEDNSGRRIDNYLLSIFNSLPRSKIYNIIRKGEVRVNSSRIKPNYRLEQGDLVRIPPNLEFT | 0.0953 |
| HMSSYTQEDVRSGILYMAQLKPRNIEEFVSTLAFSKDDIMDNLSFLVDEGFLKFDADTDTYFNPVPL | -0.214 |
| HMKRSFGYIRLLPSKRYQASYIGPDSQRHAAPETFTRKMDAEGWLSAERRLIEWDQWTSPEQRAAQARLD | -0.591 |

| Sequence | soluble fraction (log2) |
| --- | --- |
| HMSGPAEDLLAIEGMDKELAYELAARGIRTRDELADQSLDELEAVPGLDPVRAGQLIMAARAHLFENAGQ | -0.124 |
| HMDDVGERIRKIREEKNLSLDEISKMTGFDVEFLAKIENKERQPQLGTVIKLSKALDSAFGRL | 0.221 |
| HMGSRRFGDSNHAAKLTEEQVVEIRELAAAGATTKFLAEMVGMHPNYVGLILRGLSWPEAGGPLRVA | 0.11 |
| HMVIMDLIVNGEPKYVVGEQLHLILDELGYSGKHFVVELNGEILSKEAYTTTKLTAADRLEIVSFVGG | -3.5 |
| HMSAITLDQARAIALDHAGISEGDATFVKEQTGTSSYEIEFYSGSNEYDYEIDKATGAILNVDR | 0.0269 |
| HMREITVEELYELEGIRIVGTIPGISAWVAESGRQMVFLVGQKVKGHDLLEVGESRVVLRKGDSVVNVLL | -0.0622 |
| HMSDPVKQVAMRILDLREISDYTVDKMAEVLNVPVEEYRKYESGEVDMPISFLVKIGEVFHVDMTELLTG | -0.219 |
| HMAKRPRFEDVIKEINTEIQKRKGKWNLTILSWMDFDDVAQVIRIHIYRKWHLYDPSKPLGPWLNR | 0.0232 |
| HMQSFIEELLPVVDNFERSLAVVDPSDEIKNFLKGYEMIYNQLMEVLKSQGVEVIKTEGEEFDPNFHQA | 0.0366 |
| HMEKILSYKALMNDAGKRIDQFLANNEKDISRTRIKSLILEGSLKLDNNIINDPSYKIKENDVFTLFIPEA | -0.429 |
| HMTTVRLNATVPPELALQRLDRVARELFPEYSRNRLQQWIRSGELLVNGSPSGVRDKVPLGAELAVAANLE | -0.416 |
| HMTNEPRLTNMGFNKMLIENYKMILEYQDFFIRISTQIGIININGFDLKLGEMTADEVLVTGKIESIDL | 0.53 |
| HMIPENKRVLISLTYIYGIGKKISQDILEKANIDSSIKTSQLTDDDVARIRQLIENDYLVEGELRV | 0.0489 |
| HMGLNEGLNEGQQKVIQHIQENEGIKVKEISLKLNMPIDTVDRHIRVLKNLNLIERRGSRKTGGYFISN | -0.266 |
| HMSRELVILGNSMLNNALKAFHVSPASIKKKHWDKLILDYHLESKNNILIDIALGKRINVMVAHQLTSIID | 0.56 |
| HMTMGAAEAQALKDEALELYRTGGTQEDVVRAIEMYEQAAEAGNAQAASDLAYLKANGVYETAMNN | 0.268 |
| HMLRDMIIQSYRYYTDKERNPRQVWNRMEADAFWEIIRDYEGYNGDGYVHTKIIPEMEALTVIEMDN | -1.62 |
| HMTETSKLTDAKQLLESILSSGEVSYKDIISAAEEYEIGKRTLMSAKALLSIESIKKTDGWYWTLPH | -0.213 |
| HMVDALYGQGARVMRDFSEGSGIVKLDNGETWTGRLSPAASGASLYVGDRVIVTRIDGAIAEVTPP | -0.0539 |
| HMNLIFFSENLSTFRKEKGWTQSELAEKLGVKANTISNYEKGISTPDYKIIAKLRELFEMPTDVLLYSNLS | -1.39 |
| HMNIEEAESILKEIKTVLTDKEYEVYTLRAKGFTYQEIASLLNTTTKSVDGALSRIKTKINNIK | 0.0839 |
| HMLRISLAAARVNAEMTQEDVAREMHVSKNTVVNWEKGKSEPTISQSRELSKLYNMPLEYIFYL | -3.05 |
| HMLPDLLNGRVIPSPEKVIRARLNRGVWELLVQWVGRAPSDATWENLLEFKSAYPSVQLEDALF | -1.45 |

| Sequence | soluble fraction (log2) |
| --- | --- |
| HMVDQKLIQASAEHSGIRIDRFLSEQLPEHSRSYIQKLIKDGQVSIGGKAVKSNYKIAGTEEISLLIPDQ | 0.0523 |
| HMHTSEDLEKLLTRYFQSHESINRQQFEQLSGFTRTTASRRLKALVEAGKLKNIGLHHFPVYKPTEGNF | -0.354 |
| HMSSSYMVRITTSVLNVRKGPGTNYGITTKVKKGEVYTIVAEEKNGNTTWGKLKSGTGYISLGYTER | -1.29 |
| HMEYMKQRLYDIIELFKRSFSPSFSEEEKKKLENVLQDDFLRKAYEQLSDEVFIEEKFREFDGY | -1.73 |
| HMDIANEQEQIFITAMRNDDFNPILELKMKGYQPSKNVLKSLQPDVSSTTFIAAAKIFQMEGVL | -0.144 |
| HMHKREKSFFETIYDDIPGIGKKRRVQLLSAYPTLDSLKSVTLEELKQIVPEESAKLILEKRDSR | 0.0407 |
| HMDLANLQNGQTLPLQRDVEVISIPFGKTISLSEDSVVSIMQAKGSSVSVAYEGRLYLIEGSNLDALGLEP | -0.736 |
| HMEVTLTLKSFGTAKVAVIKAIQSITGLGLMDAKKLVDAAPSVIKEKISPSEAEQYKKTLVDAGAEVEI | -0.806 |
| HMGSGQVTLPDLEGKSMKEVARILSQLGLHLSPDGHGLAFKQSPAAGTRVPVGSTIKVSFQPL | 0.0366 |
| HMPELPEVETSRRGIEPHLVGATILHAVVRNGRLRWPVSEEIYRLSDQPVLSVQRRAKYLLLELQA | 0.0555 |
| HMGQLTDKQILLFSGKLAYEPTFASKYSKAGESYDDFIIRISGDLTDPKKIKEYSPYLKELGF | -0.161 |
| HMTEEEEFEKGFEILVNLSHFNRFSVYKEDEYVIVRIADYDFNEYFKVKKSDVGRIAEFLNENIT | -2.4 |
| HMNNLELSEEEKSVLTIIEKEGLIELDKLKTKLELSNKKWDKTLKFLTKNKLAKVVKNDNGLFVEL | 0.0812 |
| HMQVEYTRGELIQDLEGGKIVYAGISPSRETPTGEVNFILDSGLTRTLYVTDVSEIEQLLISYDIDPEVKK | -0.0036 |
| HMVKSYEVPDVSNLTVLEAEAKLQEMGFEIDEEQKEISSSDIESGRVVKTSPQAGSKRKEGAIITLYVSSG | 0.163 |
| HMQVAPDLMQRLTSQGHVDEKLSDALVHARQITNFEGRRRQMQFIGKLMRKLSEESIEAVKDALNEQRM | -0.264 |
| HMDSILSIVGGEESYKALLAWAENNISQQELQQLETILKSGNVPAIKRVLVTLMNRFNQAQS | -0.147 |
| HMQDPVWVDWLGENDWFQKDPKRRGLANGYSEILRAEQPELVGRPFLDEVTRRVQADFPELFG | -0.335 |
| HMKKVIKIEENVSLQKLAALMSLKVTDVLMRLLSMGMSGVNINSTIDADTAKILASEFGWTVED | -0.743 |
| HMEQLIIQEELSGKRLDQLVSLLFPSLTRAHAQKLIKEGAVLVNEKPRKPAYAVMTGELLTVELPEPE | -0.0616 |
| HMVSSAEQQARDKESGMILVQEAGGPDKARALVEKMRQDIRNPALDGTRRQMLRGHVARIELALAELETG | 0.00436 |
| HMFEQRLRQAMKELRLKQVQVAGLTGKSRGAISQYLSGDRVPPDGVQREMAIALGLEADYFSR | -0.408 |
| HMEHPNNTELTQKLELGTELMQYGDYNYALKVFNNVIDSDPEWSEAWNKRATVYFLMSQFTDSLSDIDRV | 0.32 |
